# Read-outs that look alike come from different tables or passages of the source.
# T1: CIB2 (calcium and integrin-binding protein 2), wild type (mouse, UniProt Q9Z309 1-187)
# T1 sequence: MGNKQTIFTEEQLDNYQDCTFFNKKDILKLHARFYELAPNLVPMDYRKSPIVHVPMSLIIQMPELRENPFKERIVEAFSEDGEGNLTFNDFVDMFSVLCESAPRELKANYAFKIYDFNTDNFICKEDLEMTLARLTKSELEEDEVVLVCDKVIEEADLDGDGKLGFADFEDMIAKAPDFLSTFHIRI
# T2: CIB2-DD116/120AA (mouse, UniProt Q9Z309 1-187, DD116/120AA | DD116/120AA)
# T2 sequence: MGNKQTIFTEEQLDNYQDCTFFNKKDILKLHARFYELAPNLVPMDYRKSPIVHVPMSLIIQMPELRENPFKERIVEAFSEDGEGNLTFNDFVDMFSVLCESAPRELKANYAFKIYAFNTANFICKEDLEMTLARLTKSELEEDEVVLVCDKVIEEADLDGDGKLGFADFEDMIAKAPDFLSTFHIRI
# T3: CIB2-DD157/161AA (mouse, UniProt Q9Z309 1-187, DD157/161AA | DD157/161AA)
# T3 sequence: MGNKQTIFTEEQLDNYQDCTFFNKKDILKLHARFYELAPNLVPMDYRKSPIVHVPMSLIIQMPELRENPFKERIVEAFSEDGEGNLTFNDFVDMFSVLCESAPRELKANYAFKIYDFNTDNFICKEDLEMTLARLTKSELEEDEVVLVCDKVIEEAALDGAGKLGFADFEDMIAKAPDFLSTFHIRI
# T4: CIB2, wild type, Trx-His6 tag removed (mouse, UniProt Q9Z309 1-187)
# T4 sequence: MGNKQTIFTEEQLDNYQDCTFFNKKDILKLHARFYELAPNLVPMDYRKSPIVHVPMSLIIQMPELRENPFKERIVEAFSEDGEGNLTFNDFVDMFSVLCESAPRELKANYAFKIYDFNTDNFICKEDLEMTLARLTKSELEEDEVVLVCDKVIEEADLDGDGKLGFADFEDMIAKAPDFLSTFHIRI
# T5: CIB2-E141N (mouse, UniProt Q9Z309 1-187, E141N)
# T5 sequence: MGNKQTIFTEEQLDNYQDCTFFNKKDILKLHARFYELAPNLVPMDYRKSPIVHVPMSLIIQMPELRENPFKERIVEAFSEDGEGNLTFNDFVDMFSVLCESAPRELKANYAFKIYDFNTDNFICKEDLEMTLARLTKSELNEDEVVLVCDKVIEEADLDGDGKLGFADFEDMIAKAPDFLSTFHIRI
# Experiments:
# [1] = biological target: T1, CIB2 (calcium and integrin-binding …); assay: ITC
# [2] = biological target: T1, CIB2 (calcium and integrin-binding …); assay: ITC; remark: listed apart in the source
# [3] = biological target: T2, CIB2-DD116/120AA; assay: ITC
# [4] = biological target: T3, CIB2-DD157/161AA; assay: ITC
# [5] = biological target: T4, CIB2, wild type, Trx-His6 tag removed; assay: SEC-MALS
# [6] = biological target: T5, CIB2-E141N; assay: crystal structure
# [7] = biological target: T4, CIB2, wild type, Trx-His6 tag removed; assay: SEC-MALS; remark: listed apart in the source
Binder,Kd [1],Kd [2],stoichiometry N [5],other results
"EELERLKALLDENRQMIATVKCKPWKMEKKIEVLKEAKKFVSENEGALGK (domain or fragment, mouse, UniProt Q8R4P5 81-130, looked up) [TMC1 cytosolic region 1 (CR1, amino acids 81-130)]",~0.87 µM,~74 nM,–,fold decrease of binding against CIB2 WT [3]: ~150 fold; fold decrease of binding against CIB2 WT [4]: ~50 fold
"EELERLKALLDENRQMIATVKCKPWKMEKKIEVLKEAKKFVSENEGALGK (domain or fragment, mouse, UniProt Q8R4P5 81-130, looked up) [TMC1 CR1 (amino acids 81-130), Trx-His6 tag removed]",–,–,1,binding result [6]: binds
"KGQKAANLDLKKKMKQQALENKMRNKKMAAARAAAAAGGQ (domain or fragment, mouse, UniProt Q8R4P5 718-757, looked up) [TMC1 CR3 (amino acids 718-757) as used in SEC-MALS]",–,–,–,stoichiometry N [7]: 1
"KGQKAANLDLKKKMKQQALENKMRNKKMAAARAAAAAGGQ (domain or fragment, mouse, UniProt Q8R4P5 718-757, looked up) [TMC1 cytosolic region 3 (CR3, amino acids 718-757)]",~43.4 µM,–,–,–
"TMC1 cytosolic region 2 (CR2, amino acids 298-352) with MBP tag (domain or fragment, mouse, UniProt Q8R4P5 298-352, looked up) GGGDDNTFNFSWKVFCSWDYLIGNPETADNKFNSITMNFKEAIIEERAAQVEENI",~10.8 µM,~480 nM,–,–
"TMC1 CR2 (amino acids 298-352) as used in SEC-MALS (domain or fragment, mouse, UniProt Q8R4P5 298-352, looked up) GGGDDNTFNFSWKVFCSWDYLIGNPETADNKFNSITMNFKEAIIEERAAQVEENI",–,–,1,–

# From doi:10.1101/2024.07.24.604958 (bioRxiv, 2024)
